{"source": "patent US6476190", "key": {"[1]": {"system": "2-aminobenzoyl-Thr-Ile-Nle-Phe(p-NO2)-Gln-Arg-NH2 (SEQ. ID NO. 4)"}, "[2]": {"system": "Ac-Thr-Ile-Nle-Nle-Gln-Arg-NH2 (SEQ ID NO 1)"}}}
{"substance": "{Aba^67,95,167,195} HIV-1 PR", "values": [{"measurement": "fluorogenic assay (fluorescence against time of incubation)", "setting": "[1]", "value": "showed identical activities"}]}
{"substance": "[(NHCH2COSCH2CO)^51-52 Aba^67,95] HIV-1 PR", "values": [{"measurement": "fluorogenic assay (fluorescence against time of incubation)", "setting": "[1]", "value": "showed identical activities"}, {"measurement": "cleavage of the peptide substrate (reverse phase HPLC; products identified by ion spray mass spectrometry)", "setting": "[2]", "value": "The peptide products were identified by ion spray mass spectrometry as (H)-Nle-Gln-Arg. NH2 (early eluting) and Ac-Thr-Ile-Nle-(OH) (late eluting)"}]}
